Results from patent US20250084372A1, “IN VITRO DERIVATION OF GONADAL SOMATIC CELLS” (Conception Bisosciences, Inc., priority 2020, published 2025).

Tests used:
Format in all cases: cell-based, human
[1] = test system: ovarian somatic cells (OSCs); test: OSC induction with different FGF family members, marker expression; conditions: 10 ng/mL FGF in granulosa double medium
Description: Fibroblast growth factors (FGFs) are a large family of proteins that are important for signaling events in a wide variety of processes. […] Briefly, gonadal cells were induced in granulosa doublemedium comprising different FGFs, and the expression of bipotential gonadal markers as well as that of granulosa markers were measured in the resulting cells.
The replated cells from the second intermediate population were incubated in the granulosa double medium (also referred to as gonadal induction medium or OSC induction medium) according to Table 18, with the same concentration of either FGF2, 9, 10, 16, 17, 18 or 19. The expression of bipotential gonadal markers (WT1, LHX9, GADD45G and GATA4) as well as granulosa markers (FOXL2, NR1H4 and KITLG) were measured in the resulting cells.

[2] = test system: ovarian somatic cells (OSCs); test: Concentration titration of BMP4, follistatin and FGF2 in OSC induction, qPCR for GATA4 and FOXL2
Description: Various concentration titrations of BMP4, Follistatin and FGF were tested in OSC induction, and the resulting cells were examined for expression of bipotential gonadal markers as well as that of granulosa markers.
The OSCs were induced based on the protocols described in Example 6, but with various concentrations of BMP4. Follistatin and FGF tested.
The OSC induction conditions were first tested by varying the BMP4 concentration. […] The gene expression of resulting cells was tested by qPCR for bi-potential gonadal cell markers (GATA4) as well as for granulosa cell markers (FOXL2) (FIGS. 12A and 12B respectively). Expression of GATA4 increased with higher BMP4 concentration, and FOXL2 expression appeared to peak at 10 ng/ml of BMP4 under the conditions tested.
Four different concentrations of follistatin were then tested in OSC induction, with the concentration of BMP4 kept constant at 20 ng/ml as previously described. The gene expression of resulting cells was tested by qPCR for bi-potential gonadal cell markers (GATA4) as well as for granulosa cell markers (FOXL2) (FIGS. 12C and 12D respectively). […] The generation of mature OSCs were also examined by FOXL2 expression. […] In subsequent experiments, OSC induction in the absence or at lower concentrations of follistatin was further explored.
Five different concentrations of FGF2 were then tested in OSC induction, with the concentration of BMP4 kept constant at 20 ng/mL and follistatin removed (Ong/mL). The gene expression of resulting cells were tested by qPCR for bi-potential gonadal cells (GATA4) as well as for granulosa cells (FOXL2) (FIGS. 12E and 12F respectively). As shown by FIGS. 12E and 12F, both GATA4 expression and FOXL2 expression reached saturation at 20 ng/ml of FGF2.

[3] = test system: ovarian somatic cells (OSCs); test: OSC induction with different BMP isoforms, marker qPCR; conditions: 20 ng/mL BMP in granulosa double medium
Description: Gonadal somatic cells were induced in granulosa double medium comprising different BMP isoforms, and the expression of bipotential gonadal markers as well as that of granulosa markers were measured in the resulting cells.
The expression of bipotential gonadal markers (WT1, LHX9, GADD45G and GATA4) as well as granulosa markers (FOXL2, NR1H4 and KITLG) were measured by qPCR in the resulting cells.

B1: FGF17: fibroblast growth factor family member (protein, UniProt O60258 23-216, looked up)
Fibroblast growth factor 17: TQGENHPSPNFNQYVRDQGAMTDQLSRRQIREYQLYSRTSGKHVQVTGRRISATAEDGNKFAKLIVETDTFGSRVRIKGAESEKYICMNKRGKLIGKPSGKSKDCVFTEIVLENNYTAFQNARHEGWFMAFTRQGRPRQASRSRQNQREAHFIKRLYQGQLPFPNHAEKQKQFEFVGSAPTRRTKRTRRPQPLT
- expression of bipotential gonadal markers (WT1, LHX9, GADD45G, GATA4) compared to FGF2 [1]: comparable or higher
- expression of granulosa markers (FOXL2, NR1H4, KITLG) compared to corresponding medium [1]: comparable

B2: FGF10: fibroblast growth factor family member (protein, UniProt O15520 38-208, looked up)
Fibroblast growth factor 10: QALGQDMVSPEATNSSSSSFSSPSSAGRHVRSYNHLQGDVRWRKLFSFTKYFLKIEKNGKVSGTKKENCPYSILEITSVEIGVVAVKAINSNYYLAMNKKGKLYGSKEFNNDCKLKERIEENGYNTYASFNWQHNGRQMYVALNGKGAPRRGQKTRRKNTSAHFLPMVVHS
- expression of bipotential gonadal markers (WT1, LHX9, GADD45G, GATA4) compared to FGF2 [1]: comparable or higher
- expression of granulosa markers (FOXL2, NR1H4, KITLG) compared to corresponding medium [1]: comparable

B3: FGF18: fibroblast growth factor family member (protein, UniProt O76093 28-207, looked up)
Fibroblast growth factor 18: EENVDFRIHVENQTRARDDVSRKQLRLYQLYSRTSGKHIQVLGRRISARGEDGDKYAQLLVETDTFGSQVRIKGKETEFYLCMNRKGKLVGKPDGTSKECVFIEKVLENNYTALMSAKYSGWYVGFTKKGRPRKGPKTRENQQDVHFMKRYPKGQPELQKPFKYTTVTKRSRRIRPTHPA
- expression of bipotential gonadal markers (WT1, LHX9, GADD45G, GATA4) compared to FGF2 [1]: comparable or higher
- expression of granulosa markers (FOXL2, NR1H4, KITLG) compared to corresponding medium [1]: comparable

B4: BMP4: BMP isoform in gonadal induction medium (protein, UniProt P12644 293-408, looked up)
Bone morphogenetic protein 4: SPKHHSQRARKKNKNCRRHSLYVDFSDVGWNDWIVAPPGYQAFYCHGDCPFPLADHLNSTNHAIVQTLVNSVNSSIPKACCVPTELSAISMLYLDEYDKVVLKNYQEMVVEGCGCR
- BMP4 concentration at which FOXL2 expression peaks ([2]; OSC induction): 10 ng/mL
- concentration at which the BMP4 effect saturates for OSCs ([2]; OSC induction): 20 ng/mL
- expression of GATA4 ([2]; higher BMP4 concentration): increased

B5: follistatin: protein component of gonadal induction medium (protein, UniProt P19883 30-344, looked up)
Follistatin: GNCWLRQAKNGRCQVLYKTELSKEECCSTGRLSTSWTEEDVNDNTLFKWMIFNGGAPNCIPCKETCENVDCGPGKKCRMNKKNKPRCVCAPDCSNITWKGPVCGLDGKTYRNECALLKARCKEQPELEVQYQGRCKKTCRDVFCPGSSTCVVDQTNNAYCVTCNRICPEPASSEQYLCGNDGVTYSSACHLRKATCLLGRSIGLAYEGKCIKAKSCEDIQCTGGKKCLWDFKVGRGRCSLCDELCPDSKSDEPVCASDNATYASECAMKEAACSSGVLLEVKHSGSCNSISEDTEEEEEDEDQDYSFPISSILEW
- GATA4 expression on removing follistatin altogether ([2]; 0 ng/mL follistatin, BMP4 20 ng/ml): increase
- FOXL2 expression ([2]; 25 ng/ml follistatin, no further increase at higher concentrations): marginal increase
- FOXL2 expression ([2]; higher concentrations of follistatin, BMP4 20 ng/ml): marginal increase

B6: BMP15: BMP isoform in gonadal induction medium (protein, UniProt O95972 268-392, looked up)
Bone morphogenetic protein 15: QADGISAEVTASSSKHSGPENNQCSLHPFQISFRQLGWDHWIIAPPFYTPNYCKGTCLRVLRDGLNSPNHAIIQNLINQLVDQSVPRPSCVPYKYVPISVLMIEANGSILYKEYEGMIAESCTCR
- expression of bipotential gonadal markers (WT1, LHX9, GADD45G, GATA4) compared to BMP4 [3]: comparable or higher
- expression of granulosa markers (FOXL2, NR1H4, KITLG) compared to BMP4 [3]: comparable or higher

B7: BMP7: BMP isoform in gonadal induction medium (protein, UniProt P18075 293-431, looked up)
Bone morphogenetic protein 7: STGSKQRSQNRSKTPKNQEALRMANVAENSSSDQRQACKKHELYVSFRDLGWQDWIIAPEGYAAYYCEGECAFPLNSYMNATNHAIVQTLVHFINPETVPKPCCAPTQLNAISVLYFDDSSNVILKKYRNMVVRACGCH
- expression of bipotential gonadal markers (WT1, LHX9, GADD45G, GATA4) compared to BMP4 [3]: comparable or higher
- expression of granulosa markers (FOXL2, NR1H4, KITLG) compared to BMP4 [3]: comparable or higher
